Assay results published in patent publication US20060281899A1, “Mutants of biotin binding protein” (priority 2002, published 2006).
Like-named read-outs stand apart in the source and are kept apart here.

Assays:
Isoelectric focusing = format: physicochemical
Description: The heat stability of the AVRs was studied by using an SDS-PAGE-based method (Bayer, E. A., Ehrlich-Rogozinski, S. and Wilchek, M. (1996) Electrophoresis 17, 1319-1324). In this method, each protein sample was divided into two fractions one of which was kept biotin-free and the other was supplemented with an excess of biotin. The samples were then mixed with denaturing SDS-PAGE sample buffer (containing β-mercaptoethanol) and incubated at a given temperature for 20 minutes. After heat treatment, the samples were subjected to SDS-PAGE and visualised by staining with Coomassie brilliant blue. The relative proportions of tetrameric and monomeric forms of the AVR proteins (with avidin as the control) were detected. A similar assay, with β-mercaptoethanol omitted from the sample buffer, was performed to examine the presence of intersubunit disulfide-bridges. Sensitivity to proteinase K was studied both in the absence and in the presence of biotin as described (Laitinen, O. H., Airenne, K. J., Marttila, A. T., Kulik, T., Porkka, E., Bayer, E. A., Wilchek, M. and Kulomaa, M. S. (1999) FEBS Lett. 461, 52-8). The isoelectric point of each AVR was determined by isoelectric focusing as previously reported (Marttila, A. T., Airenne, K. J., Laitinen, O. H., Kulik, T., Bayer, E. A., Wilchek, M. and Kulomaa, M. S. (1998) FEBS Lett. 441, 313-317). The glycosylation patterns of the AVR proteins were studied by treating the proteins with Endo Hf and PNGase F glycosidase according to the manufacturer's instructions (New England Biolabs, Mass., USA).

[1] = IASyS reversibility of biotin binding of avidin and AVRs; details: biotin cuvette, after addition of free biotin (0.17 mg/ml)
Description: The reversibility of biotin binding was studied as follows: Avidin and the AVRs were allowed to bind to a biotin-coated cuvette. After measuring the initial binding (A) as described above, biotin-saturated (0.17 mg/ml) buffer was injected into the cuvette and the amount of proteins remaining bound was measured until no dissociation was seen, again as compared to the negative control cuvette (B). The measurement time was at least 20 minutes. The percent reversibility was calculated as follows: reversibility (%)=100*(A−B)/A. A−B is the amount of liberated proteins after biotin adding.

[2] = IAsys optical biosensor, AVR4/5 forms binding to 2-iminobiotin surface; details: for Kd: 20° C.
Description: The biotin-binding characteristics of the different avidins were studied using an IAsys optical biosensor at 20° C. The reversibility of binding and binding affinities to the 2-iminobiotin surface in 50 mM borate buffer (pH 9.5, 1 M NaCl) were measured as previously reported (Laitinen, O. H., Hytönen, V. P., Ahlroth, M. K., Pentikäinen, O. T., Gallagher, C., Nordlund, H. R., Ovod, V., Marttila, A. T., Porkka, E., Heino, S., Johnson, M. S., Airenne, K. J. & Kulomaa, M. S. (2002) Biochem. J. 363, 609-617).
Briefly, The 2-iminobiotin ligand was immobilized onto the carboxymethyldextran surface of a cuvette using N-hydroxysuccinimide activation. Binding of various concentrations of avidin or avidin mutants onto 2-iminobiotinylated surface were measured in a 50 mM borate buffer (pH 9.5) containing 1 M NaCl at 20° C. The iminobiotin cuvettes were regenerated with 20 mM HCl. The kinetic rate constants for association (kass) and dissociation (kdiss) were calculated using the Fast Fit program package (Affinity Sensors). The obtained rate constants were used to calculate Kd(rel) according to Kd=kdiss/kass. Equilibrium data obtained from measurements with different protein concentrations were used to calculate the dissociation constant Kd(eq).

[3] = IAsys reversibility of binding to biotin, AVR4/5 forms; details: biotin cuvette
Description: The biotin-binding characteristics of the different avidins were studied using an IAsys optical biosensor at 20° C. […] H., Hytönen, V. P., Ahlroth, M. K., Pentikäinen, O. T., Gallagher, C., Nordlund, H. R., Ovod, V., Marttila, A. T., Porkka, E., Heino, S., Johnson, M. S., Airenne, K. J. & Kulomaa, M. S. (2002) Biochem. J. 363, 609-617).

[4] = system: biotinylated alkaline phosphatase; assay: Microtiter plate assay, biotin-binding activity after heat treatment at 99.9° C.; format: physicochemical; details: 99.9° C. for various time periods
Description: Reversibility of biotin binding was measured for avidin and the mutants with an IAsys optical biosensor (Laitinen, O. H. et al., FEBS Lett 461 (1999), 52-8). Protein samples were allowed to bind to a biotin-aminosilane cuvette in PBS containing 1 M NaCl. After the equilibrium was reached, biotin-containing buffer was added and the dissociation of the proteins was monitored. The affinities of the proteins towards 2-iminobiotin were determined with an IAsys optical biosensor (Marttila, A. T. et al. FEBS Lett 441 (1998), 313-7). Biotin-binding activity of the mutants Avd-ci and Avd-ccci after heat treatment was studied with a microtiter plate assay. Protein samples, 5 μg/ml concentration in PBS, were heated for various time periods at 99.9° C. and then chilled on ice. The samples were transferred to a Nunc Maxisorp-plate and incubated at 37° C. for 2 h. The wells were washed three times with PBS-Tween (0.05% v/v). […] The absorbances at 405 nm were measured after incubation for 45 minutes.
Biotin-binding activity of the proteins after heat treatment was studied with a microtiter plate assay (Nordlund, H. R., Laitinen, O. H., Uotila, S. T., Nyholm, T., Hytönen, V. P., Slotte, J. P. & Kulomaa, M. S. (2003) J. Biol. Chem. 278, 2479-2483). […] The absorbencies at 405 nm were measured after incubation for 45 minutes.

B1: AVR4/5: Recombinant chicken avidin-related protein 4/5 (AVR4 and AVR5 identical in coding sequence) (protein, UniProt P56734 25-150, looked up)
Avidin-related protein 4/5: ARKCSLTGKWTNNLGSIMTIRAVNSRGEFTGTYLTAVADNPGNITLSPLLGIQHKRASQPTFGFTVHWNFSESTTVFTGQCFIDRNGKEVLKTMWLLRSSVNDISYDWKATRVGYNNFTRLCTVEE
- pI by isoelectric focusing (Isoelectric focusing): ≈ 10
- Reversibility of biotin binding [1]: 2 ± 2%
- kass [2]: (7.0 ± 2.1) × 10^3 M^−1s^−1
- kdiss [2]: (1.6 ± 1.4) × 10^−3 s^−1
- Kd ([2]; 50 mM borate pH 9.5, 1 M NaCl, read-out: Kd detected from the equilibrium response data): 160 nM
- Kd ([2]; pH 9.5, 1 M NaCl, read-out: Kd detected directly from the binding curves): 230 nM
- Reversibility of binding to biotin [3]: 5 ± 3%
- biotin-binding activity after heat treatment [4]: superior stability against boiling
